Test results from paper PMC12707108, “CpoS-Inc interactions facilitate host cell modulation during Chlamydia trachomatis infection” (Infection and Immunity, 2025).
Values joined by “and” are separate entries in the source; they are usually repeats but may differ in a detail not shown here. Identical values can stand only once.

Tests used:
[1] = biological target: MBP-InaC C-ter (Chlamydia trachomatis serovar L2 (LGV 434/Bu)); assay: SEC + other: mass photometry + native gel or EMSA; purified MBP-tagged proteins; Superdex 200 SEC, mass photometry of SEC fractions in DPBS, native PAGE
[2] = biological target: MBP-IPAM C-ter (Chlamydia trachomatis serovar L2 (LGV 434/Bu)); assay: as above
[3] = biological target: the molecule itself; assay: not stated; CpoS C-ter in acidic and basic buffer conditions (Fig. S3C)
[4] = biological target: the molecule itself; assay: mass photometry; fractions of MBP-CpoS C-ter from Superdex 200 SEC (13 and 14 mL); 100 nM protein added to DPBS, room temperature
[5] = biological target: the molecule itself; assay: SEC + other: mass photometry + native gel or EMSA; purified MBP-tagged proteins; Superdex 200 SEC, mass photometry of SEC fractions in DPBS, native PAGE

## MBP-InaC C-ter (domain or fragment)
[1]
  stoichiometry N: 2 and 3

## MBP-IPAM C-ter (domain or fragment)
[2]
  stoichiometry N: 2 and 3

B1: MBP-CpoS C-ter (domain or fragment)
chain: RARSRRVEIERQLEVVSMQIEELEEEYKALSEVYRANLEARRAVSKYCQELEEKILDLCKRHAATICSIEEDAKQEIRHQTERFKQRLQQNQNTCSQLTAELCKLRSENKALSERLQVQASRRKK
notes: also called MBP-tagged CpoS C-ter; MBP-tagged CpoS; source: E. coli BL21 (DE3), purified (amylose resin, Superdex 200)
[3]
  stoichiometry N: 2
[4]
  stoichiometry N: 4 and 8

B2: MBP-IncA C-ter (domain or fragment)
chain: QKTANLHLYQDLQREVGSLKEINFMLSVLQKEFLHLSKEFATTSKDLSAVSQDFYSCLQGFRDNYKGFESLLDEYKNSTEEMRKLFSQEIIADLKGSVASLREEIRFLTPLAEEVRRLAHNQESLTAAIEELKTIRDSLRDEIGQLSQLSKTLTSQIALQRKESSDLCSQIRETLSSPRKSASPSTKSS
[5]
  stoichiometry N: 4
